The target of this test is WNV (strain New York 1999), infectious virus (West Nile virus, strain New York 1999) (UniProt Q9Q6P4). Kind of test: cell-based or functional assay.

In the case of “Tetra pHu-E16 (tetravalent molecule assembled from pHu-E16scFv-CH^1-3 and pHu-E16scFv-CL) (antibody)”, the EC50, focus reduction neutralization assay (Vero cells) came out at 3 ng/mL.

(Values after patent US20170275639A1.)
